Laboratory results: paper PMC3834315

Molecular target: T1, C-terminally hexa-histidine (His6)-tagged VapC10 (toxin, PIN-domain protein, slr1767) of Synechocystis sp. … (Synechocystis sp. PCC 6803, UniProt P73045 1-112)
T1 construct: also called VapC10-His6; VapC-His6; not shown: His6, C-terminal, kept
T1 sequence (looked up): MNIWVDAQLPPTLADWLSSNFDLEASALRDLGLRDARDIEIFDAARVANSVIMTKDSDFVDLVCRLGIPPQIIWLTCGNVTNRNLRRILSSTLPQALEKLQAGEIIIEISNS
Assay: pull-down
Conditions: partners not purified

B1: VapB10 (antitoxin, COG2442-domain protein, ssr2962) of Synechocystis sp. PCC 6803 (natural protein, UniProt P73044 1-74, looked up)
chain: MNSLLSRITQTPGQCGGRPCIRGMRIRVSDILEMLAENVSTSEILEDFPDLEMADIQACLVFAARRTDFSRLTA
notes: source: E. coli BL21(DE3)(pJS653), co-expressed with VapC10-His6, in cleared lysate
- stoichiometry N: ~1 VapB10 per VapC10-His6
